Assay results reported in PMC7158967, “Comparative evaluation of ^68Ga-labelled TATEs: the impact of chelators on imaging” (EJNMMI Research, 2020).
Like-named read-outs stand apart in the source and are kept apart here.

Assays:
[1] = type: in vitro ADME; details: human
Procedure: In vitro serum binding studies for both ^68Ga-labelled NOTA-TATE and DOTA-TATE were carried out by following a generalized procedure summarized below. One millilitre of fresh anticoagulated (heparinized) human plasma was prepared. Freshly labelled compound (3.7 MBq, 0.1 mCi) was added to three centrifuge tubes, each containing 0.1 mL of human plasma. After incubation at 37 °C for 2 h, 1 mL of ice-cold methanol was added to each tube. The mixtures were separated by centrifugation (5 min, 3000 rpm) to collect the supernatant, which was repeated three times. A gamma counter was then used to measure the radioactivity of the supernatant (A) and the precipitate (B) in counts per minute (CPM); the plasma-protein binding rate was calculated as PPB = B/(A + B)100%, and the average of three tubes was recorded.

[2] = Biodistribution in AR42J tumour-bearing nude mice; details: mouse, in vivo; for tissue to tissue ratio at 0.25 h / tissue to tissue ratio at 0.5 h / tissue to tissue ratio at 1 h / tissue to tissue ratio at 2 h: both sexes, nude, iv, 0.1 mCi, total radioactivity
Procedure: (§1) Tumour cells were subcutaneously injected into the left forelimb of each nude mouse. Biodistribution and imaging studies were conducted when the tumour volume reached at least 1.0 × 1.0 × 1.0 cm^3.

[3] = Micro-PET/CT imaging of AR42J tumour-bearing nude mice; details: both sexes, mouse, in vivo, iv, 2.96 MBq, total radioactivity, nude mice bearing AR42J tumours, read-out: SUVmax, 3D micro-PET/CT
Procedure: as §1
Six (3 female and 3 male) mice with AR42J tumour xenografts (15–20 g) were used in the imaging study. All tumour-bearing mice were anaesthetized by intranasal inhalation of isoflurane. […] Images were acquired and reconstructed using micro-PET/CT at 30 min and 2 h after intravenous injection.

KM mice = details: mouse, in vivo
Procedure: Thirty KM mice were randomly divided into a control group, a ^68Ga- NOTA-TATE low-dose group (100 μCi) and a high-dose group (1 mCi). Each group contained 10 mice, half female and half male. The dose of the appropriate compound was administered through the tail vein at an administration volume of 0.2 mL. The animal blood routine, body weight and animal feed consumption were performed before administration and on days 4, 7, 14, 21 and 28 after administration. At the end of the observation period, the surviving mice were dissected, and histopathological examination was performed on the myocardium, liver, spleen, lung, kidney, stomach, intestine, gonad, bone, muscle and brain of each mouse.

clinical = details: human, in vivo, total radioactivity
Procedure: (§2) Twenty-two healthy volunteers gave informed consent and agreed to participate in the study. […] Each patient was injected with an average activity of 1.9 MBq/kg. The timing of image acquisition ranged from 30 to 45 min after injection (3 min/bed position). The PET image was attenuated and then reconstructed using the iterative reconstruction algorithm implemented.

healthy volunteers = test: clinical; details: human, in vivo
Procedure: as §2

## C[C@@H](O)[C@@H]1NC(=O)[C@H](CCCCN)NC(=O)[C@@H](Cc2c[nH]c3ccccc23)NC(=O)[C@H](Cc2ccccc2)NC(=O)[C@@H](NC(=O)[C@@H](Cc2ccccc2)NC(=O)CN2CCN(CC(=O)O)CCN(CC(=O)O)CC2)CSSC[C@@H](C(=O)N[C@H](CO)[C@@H](C)O)NC1=O [^68Ga-NOTA-TATE, metal not drawn]
[1]
  fraction unbound at 2 h: 0.879
[2]
  tissue to tissue ratio at 0.25 h: 12.5
  tissue to tissue ratio at 0.5 h: 8.45
  tissue to tissue ratio at 1 h: 39.5
  tissue to tissue ratio at 2 h: 44.3
[2]; 15 min postinjection, read-out: Tumour/kidney ratio
  tissue to tissue ratio at 0.25 h: 0.18
[2]; 0.5 h postinjection, read-out: Tumour/kidney ratio
  tissue to tissue ratio at 0.5 h: 0.94
[2]; 1 h postinjection, read-out: Tumour/kidney ratio
  tissue to tissue ratio at 1 h: 0.81
[2]; 2 h postinjection, read-out: Tumour/kidney ratio
  tissue to tissue ratio at 2 h: 0.79
[2]; %ID/g Blood
  tissue uptake at 0.25 h: 3.25 ± 1.06 %ID/g
  tissue uptake at 0.5 h: 1.01 ± 0.42 %ID/g
  tissue uptake at 1 h: 0.58 ± 0.24 %ID/g
  tissue uptake at 2 h: 0.07 ± 0.06 %ID/g
[2]; %ID/g Gallbladder
  tissue uptake at 0.25 h: 3.62 ± 1.94 %ID/g
  tissue uptake at 0.5 h: 6.21 ± 2.69 %ID/g
  tissue uptake at 1 h: 1.83 ± 0.84 %ID/g
  tissue uptake at 2 h: 1.61 ± 0.67 %ID/g
[2]; %ID/g Intestines
  tissue uptake at 0.25 h: 0.07 ± 0.04 %ID/g
  tissue uptake at 0.5 h: 0.03 ± 0.02 %ID/g
  tissue uptake at 1 h: 0.21 ± 0.09 %ID/g
  tissue uptake at 2 h: 0.13 ± 0.07 %ID/g
[2]; %ID/g Kidney
  tissue uptake at 0.25 h: 17.1 ± 6.39 %ID/g
  tissue uptake at 0.5 h: 4.23 ± 2.73 %ID/g
  tissue uptake at 1 h: 3.79 ± 2.16 %ID/g
  tissue uptake at 2 h: 1.69 ± 1.02 %ID/g
[2]; %ID/g Liver
  tissue uptake at 0.25 h: 1.19 ± 0.54 %ID/g
  tissue uptake at 0.5 h: 0.43 ± 0.23 %ID/g
  tissue uptake at 1 h: 0.07 ± 0.04 %ID/g
  tissue uptake at 2 h: 0.04 ± 0.02 %ID/g
[2]; %ID/g Lungs
  tissue uptake at 0.25 h: 3.64 ± 1.56 %ID/g
  tissue uptake at 0.5 h: 0.21 ± 0.17 %ID/g
  tissue uptake at 1 h: 0.64 ± 0.41 %ID/g
  tissue uptake at 2 h: 0.48 ± 0.21 %ID/g
[2]; %ID/g Muscle
  tissue uptake at 0.25 h: 0.26 ± 0.03 %ID/g
  tissue uptake at 0.5 h: 0.47 ± 0.26 %ID/g
  tissue uptake at 1 h: 0.08 ± 0.06 %ID/g
  tissue uptake at 2 h: 0.03 ± 0.01 %ID/g
[2]; %ID/g Skeleton
  tissue uptake at 0.25 h: 2.14 ± 1.41 %ID/g
  tissue uptake at 0.5 h: 1.46 ± 0.37 %ID/g
  tissue uptake at 1 h: 0.85 ± 0.38 %ID/g
  tissue uptake at 2 h: 0.13 ± 0.07 %ID/g
[2]; %ID/g Spleen
  tissue uptake at 0.25 h: 0.19 ± 0.08 %ID/g
  tissue uptake at 0.5 h: 0.13 ± 0.11 %ID/g
  tissue uptake at 1 h: 0.12 ± 0.06 %ID/g
  tissue uptake at 2 h: 0.03 ± 0.01 %ID/g
[2]; %ID/g Stomach
  tissue uptake at 0.25 h: 0.19 ± 0.13 %ID/g
  tissue uptake at 0.5 h: 3.55 ± 1.83 %ID/g
  tissue uptake at 1 h: 1.61 ± 1.03 %ID/g
  tissue uptake at 2 h: 1.11 ± 0.21 %ID/g
[2]; %ID/g Tumour
  tissue uptake at 0.25 h: 3.24 ± 1.03 %ID/g
  tissue uptake at 0.5 h: 3.97 ± 2.24 %ID/g
  tissue uptake at 1 h: 3.16 ± 1.92 %ID/g
  tissue uptake at 2 h: 1.33 ± 0.96 %ID/g
[3]; 30 min after i.v. injection
  SUV at 0.5 h: 3.02 SUV
[3]; 120 min after i.v. injection
  SUV at 2 h: 1.64 SUV
KM mice
  acute animal toxicity, overall finding: no apparent toxicity
  histopathological examination: no toxic pathological changes
clinical; both sexes, 1.9 MBq/kg, SUVmax Adrenals, average
  SUV: 10.7 SUV
clinical; both sexes, 1.9 MBq/kg, SUVmax Blood pool, average
  SUV: 1.4 SUV
clinical; both sexes, 1.9 MBq/kg, SUVmax Bone marrow, average
  SUV: 0.9 SUV
clinical; both sexes, 1.9 MBq/kg, SUVmax Kidneys, average
  SUV: 14.1 SUV
clinical; both sexes, 1.9 MBq/kg, SUVmax Large bowel, average
  SUV: 1.5 SUV
clinical; both sexes, 1.9 MBq/kg, SUVmax Liver, average
  SUV: 4.2 SUV
clinical; both sexes, 1.9 MBq/kg, SUVmax Lungs, average
  SUV: 0.6 SUV
clinical; both sexes, 1.9 MBq/kg, SUVmax Lymph nodes, average
  SUV: 1.2 SUV
clinical; both sexes, 1.9 MBq/kg, SUVmax Palatine tonsil, average
  SUV: 1.3 SUV
clinical; both sexes, 1.9 MBq/kg, SUVmax Pancreas, average
  SUV: 3.7 SUV
clinical; both sexes, 1.9 MBq/kg, SUVmax Parotid gland, average
  SUV: 0.9 SUV
clinical; both sexes, 1.9 MBq/kg, SUVmax Pituitary gland, average
  SUV: 1.5 SUV
clinical; both sexes, 1.9 MBq/kg, SUVmax Small bowel, average
  SUV: 1.8 SUV
clinical; both sexes, 1.9 MBq/kg, SUVmax Spleen, average
  SUV: 14.6 SUV
clinical; both sexes, 1.9 MBq/kg, SUVmax Stomach, average
  SUV: 2.4 SUV
clinical; both sexes, 1.9 MBq/kg, SUVmax Submandibular, average
  SUV: 1.2 SUV
clinical; both sexes, 1.9 MBq/kg, SUVmax Thymus, average
  SUV: 1.1 SUV
clinical; both sexes, 1.9 MBq/kg, SUVmax Thyroid, average
  SUV: 1.7 SUV
clinical; both sexes, iv, 1.9 MBq/kg, SUVmax Breast, average
  SUV: 0.7 SUV
clinical; iv, 1.86 mCi, SUVmax kidney, single volunteer
  SUV: 12.5 SUV
clinical; iv, 1.86 mCi, SUVmax liver, single volunteer
  SUV: 1.4 SUV
clinical; iv, 1.86 mCi, SUVmax pituitary, single volunteer
  SUV: 1.9 SUV
clinical; iv, 1.86 mCi, SUVmax spleen, single volunteer
  SUV: 6.8 SUV
clinical; iv, 3.83 mCi, SUVmax kidney, single volunteer
  SUV: 6.2 SUV
clinical; iv, 3.83 mCi, SUVmax liver, single volunteer
  SUV: 1.3 SUV
clinical; iv, 3.83 mCi, SUVmax pituitary, single volunteer
  SUV: 0.7 SUV
clinical; iv, 3.83 mCi, SUVmax spleen, single volunteer
  SUV: 3.9 SUV
Healthy volunteers
  SUVmax Adrenals, range: 5.7~15.6
  SUVmax Blood pool, range: 0.9~1.6
  SUVmax Bone marrow, range: 0.7~1.1
  SUVmax Breast, range: 0.5~1.1
  SUVmax Kidneys, range: 6.2~20.3
  SUVmax Large bowel, range: 1.0~2.4
  SUVmax Liver, range: 1.3~6.3
  SUVmax Lungs, range: 0.3~0.9
  SUVmax Lymph nodes, range: 0.8~1.4
  SUVmax Palatine tonsil, range: 0.6~1.8
  SUVmax Pancreas, range: 2.0~5.5
  SUVmax Parotid gland, range: 0.7~1.3
  SUVmax Pituitary gland, range: 0.7~2.3
  SUVmax Small bowel, range: 1.4~2.5
  SUVmax Spleen, range: 10.7~17.1
  SUVmax Stomach, range: 1.6~4.9
  SUVmax Submandibular, range: 0.7~1.4
  SUVmax Thymus, range: 0.6~1.4
  SUVmax Thyroid, range: 1.2~2.5
  radioactivity in the gallbladder: not seen
  side effects after administration: no apparent side effects
  uptake in the brain: No apparent
